Data reported in publication PMC8727931, “The crystal structure of the FAM134B–GABARAP complex provides mechanistic insights into the selective binding of FAM134 to the GABARAP subfamily” (FEBS Open Bio, 2021).
No end group written: not given here.

Key:
Settings in all cases: both partners purified
LC3B = LC3B (UniProt Q9CQV6 1-120); experiment: SEC-MALS; Superose 12 10/300GL column; 100 mM NaCl, 50 mM Tris/HCl pH 7.5, 1 mM DTT, 1 mM EDTA; proteins mixed at a 1:1 molar ratio
GABARAPL1 [1] = biological target: T1, GABARAPL1 (UniProt Q8R3R8 1-117); experiment: as above
T1 construct: GABARAPL1; source: E. coli BL21 (DE3), purified

[2] = biological target: T2, LC3A (recombinant, for ITC) (UniProt Q91VR7 1-121); experiment: ITC; VP-ITC, 25 °C; 50 mM Tris/HCl pH 7.5, 100 mM NaCl, 1 mM DTT, 1 mM EDTA; GABARAP or LC3A (350 uM) injected into Trx-tagged FAM134B (35 uM) in the cell; one-site binding model
T2 construct: LC3A; source: E. coli BL21 (DE3), purified

[3] = biological target: T3, GABARAP (recombinant, for ITC, SEC and crystallization) (UniProt Q9DCD6 1-117); experiment: as above
T3 construct: GABARAP; also called recombinant GABARAP protein; source: E. coli BL21 (DE3), purified

GABARAPL1 [4] = biological target: T1, GABARAPL1; experiment: SEC; FAM134A mixed with GABARAPL1 or LC3B at a 1:1 molar ratio; qualitative

T3 sequence (Q9DCD6 whole entry): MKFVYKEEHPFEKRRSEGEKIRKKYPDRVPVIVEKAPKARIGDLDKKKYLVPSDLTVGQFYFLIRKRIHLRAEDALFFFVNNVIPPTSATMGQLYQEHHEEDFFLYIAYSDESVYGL

B1: Trx-tagged FAM134B LIR (aa 451-476) (domain or fragment, UniProt Q9H6L5 451-476, looked up)
chain: EGDDFELLDQSELDQIESELGLTQDQ
modifications: also: Trx-tagged
notes: FAM134B (reticulophagy regulator 1), LIR and C-terminal extension, residues 451-476; 451-476 is what the results give for FAM134B LIR; Named 'Trx-tagged FAM134B' for ITC; I take the same construct for SEC-MALS; source: E. coli BL21 (DE3), purified (Ni2+-NTA, size-exclusion chromatography); not shown: Trx-His6, N-terminal, kept
In the case of B1, the binding result (LC3B) is reported as “binds”, the binding result (GABARAPL1 [1]) is reported as “binds” and the Kd [2] is reported as about 376 nM. It also gave a Kd [3] of 42 nM.

B2: human FAM134A fragment (residues 488-513) (domain or fragment)
chain: TTEDFELLDQGELEQLNAELGLEPET
notes: FAM134A, human, residues 488-513; source: E. coli BL21 (DE3), purified
B2: binds (GABARAPL1 [4]).
